Test results: paper PMC7498053

Biological target: RNA polymerase II (Pol II) immunopurified from HeLa cell nuclear extracts (human (endogenous in HeLa)) (UniProt P24928)
Assay: negative stain electron microscopy; minimal PIC (DNA/TBP/TFIIA/TFIIB/Pol II/TFIIF) assembled sequentially on biotinylated promoter DNA, GST-ORF24-NTD added last; purified on streptavidin beads, eluted with EcoRI, cross-linked with 0.05% glutaraldehyde; 2D and 3D classification and difference maps, ~20 A

GST-ORF24-NTD (KSHV ORF24 residues 1-201 with an N-terminal GST tag) (domain or fragment)
percent of PIC particle images with extra density: 25%
